Experiments:
[1] = target: T1, GFP-MFSD2ACO (N-terminal FLAG-tag/GFP fusion of MFSD2ACO, detergent-solubilised lysate) (human, UniProt Q8NA29 1-543); assay: titration of SYNC2-mCherry lysate onto GFP-MFSD2A captured on anti-FLAG resin in DDM/CHS at 4 °C; eluted mCherry/GFP fluorescence fitted to a quadratic binding equation
T1 construct: The methods say only 'MFSD2A'; also called MFSD2A-GFP; not shown: N-terminal FLAG-tag, GFP and PreScission protease cleavage site
T1 chain: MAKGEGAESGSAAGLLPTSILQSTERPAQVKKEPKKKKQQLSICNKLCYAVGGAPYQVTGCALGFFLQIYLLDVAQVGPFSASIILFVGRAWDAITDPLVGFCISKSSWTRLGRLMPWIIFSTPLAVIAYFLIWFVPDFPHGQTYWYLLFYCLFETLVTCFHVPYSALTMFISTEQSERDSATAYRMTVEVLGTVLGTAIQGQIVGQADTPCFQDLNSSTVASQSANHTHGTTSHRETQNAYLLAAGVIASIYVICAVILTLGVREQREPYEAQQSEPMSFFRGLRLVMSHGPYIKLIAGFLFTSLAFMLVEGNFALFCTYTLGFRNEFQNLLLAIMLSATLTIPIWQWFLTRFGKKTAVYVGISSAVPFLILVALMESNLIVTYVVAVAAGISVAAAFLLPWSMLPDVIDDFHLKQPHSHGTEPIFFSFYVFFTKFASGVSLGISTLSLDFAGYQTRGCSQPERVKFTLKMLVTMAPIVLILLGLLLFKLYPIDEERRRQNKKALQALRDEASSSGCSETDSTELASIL
Procedure: SYNC2 binding to MFSD2A was assayed in clear lysates of detergent-solubilized HEK-293F cells expressing mCherry (C-terminal) and GFP (N-terminal) fusion constructs of SYNC2 and MFSD2A, respectively, that enable protein quantification. Clear cells lysates were obtained by 1-hour solubilization in lysis buffer containing 50 mM HEPES pH 7.4, 200 mM NaCl, 5% v/v glycerol, 1 mM EDTA, protease-inhibitor cocktail, 1% DDM, and 0.2% CHS, followed by centrifugation (3,800g, 20 min). SYNC2-mCherry and GFP-MFSD2A protein concentrations in lysates were determined using purified standards in a micro-plate reader (CLARIOstar-Plus) set at 570/620 and 470/514 (λexcitation/λemission), respectively. MFSD2A-GFP lysate at 500 nM was incubated with 2 ml anti-FLAG M2 resin for 1 hour, fractionated in 8 equal parts placed on gravity columns and washed with 1 ml of wash buffer (50 mM HEPES pH 7.4, 200 mM NaCl, 5% (v/v) glycerol, 0.03% DDM, and 0.006% CHS). SYNC2-mCherry was added from a calibrated stock at 2 μM, and equilibrated for 1 hour. […] Eluted protein was transferred to a 96-well flat-bottom black plate for quantification of GFP and mCherry fluorescence. SYNC-mCherry fluorescence background was determined from samples with anti-FLAG resin that lack MFSD2A-GFP bound. SYNC2-mCherry subtracted fluorescence was fitted to a quadratic binding equation using Sigma Plot (Systat).

[2] = target: T2, MFSD2ACO (thermostable consensus MFSD2A mutant), purified in detergent (human, UniProt Q8NA29 1-543); assay: cryo-EM 2D classes and 3D reconstructions of the purified complex; 3.6 Å map of SYNC2SU-CO bound to MFSD2ACO
T2 construct: Full-length transporter expressed in HEK-293F with an N-terminal FLAG-tag, GFP and PreScission site; also called MFSD2A consensus; MFSD2A consensus design
T2 chain: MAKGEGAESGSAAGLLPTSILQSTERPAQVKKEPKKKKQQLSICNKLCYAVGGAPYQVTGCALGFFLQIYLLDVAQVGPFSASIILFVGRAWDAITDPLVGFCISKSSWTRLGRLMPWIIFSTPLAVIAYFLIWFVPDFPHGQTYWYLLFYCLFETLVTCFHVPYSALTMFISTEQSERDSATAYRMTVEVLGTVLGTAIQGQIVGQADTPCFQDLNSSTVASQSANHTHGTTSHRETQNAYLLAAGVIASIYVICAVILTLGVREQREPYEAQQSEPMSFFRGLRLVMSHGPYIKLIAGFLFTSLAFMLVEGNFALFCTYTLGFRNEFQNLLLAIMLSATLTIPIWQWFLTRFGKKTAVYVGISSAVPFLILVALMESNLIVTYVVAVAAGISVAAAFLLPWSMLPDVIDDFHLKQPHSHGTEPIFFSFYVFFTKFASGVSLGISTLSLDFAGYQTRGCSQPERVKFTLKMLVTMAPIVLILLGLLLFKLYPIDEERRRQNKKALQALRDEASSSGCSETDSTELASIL
From the text: For cryo-EM structural determination of MFSD2ACO-SYNC2CO complex, the inventors used SYNC2CO-C43S (SYNC2_CO-C43S) mutant to avoid detachment of surface and transmembrane subunits upon binding to MFSD2ACO. […] However, high flexibility within the complex precluded high-resolution 3D reconstructions. To overcome this problem, the inventors used a smaller box size in order to extract individual components, effectively increasing particle number and sample homogeneity, as it was recently shown in cryo-EM structure determination of human CD20 bound to divalent Fab fragments (Kumar et al., 2020). This approach enabled particle averaging over the three MFSD2ACO molecules in the complex, yielding a cryo-EM map at an overall 3.6 Å resolution of SYNC2_SU-CO bound to MFSD2ACO (FIG. 1F; Table 1; FIG. 7, 8). […] Trimeric SYNC2TM in the post-fusion state was not resolved in 3D cryo-EM reconstructions, likely due to lower number of particles, as well as alignment problems of micelles containing only three flexible transmembrane helices.
MFSD2ACO-SYNC2_CO-C43S purified complex was applied to glow-discharged Au 200 mesh Quantifoil R1.2/1.3 holey carbon grids (Quantifoil), and vitrified using Vitrobot Mark IV (ThermoFisher). Typically, 4 μl of sample at 1.2-1.5 mg/ml were applied to the grids, and the Vitrobot chamber was maintained at 100% humidity and 4° C. […]

[3] = target: T3, MFSD2ACO expressed in HEK-293T.17 cells (LPC-analog transport assay) (human, UniProt Q8NA29 1-543); assay: cell-based or functional assay
T3 chain: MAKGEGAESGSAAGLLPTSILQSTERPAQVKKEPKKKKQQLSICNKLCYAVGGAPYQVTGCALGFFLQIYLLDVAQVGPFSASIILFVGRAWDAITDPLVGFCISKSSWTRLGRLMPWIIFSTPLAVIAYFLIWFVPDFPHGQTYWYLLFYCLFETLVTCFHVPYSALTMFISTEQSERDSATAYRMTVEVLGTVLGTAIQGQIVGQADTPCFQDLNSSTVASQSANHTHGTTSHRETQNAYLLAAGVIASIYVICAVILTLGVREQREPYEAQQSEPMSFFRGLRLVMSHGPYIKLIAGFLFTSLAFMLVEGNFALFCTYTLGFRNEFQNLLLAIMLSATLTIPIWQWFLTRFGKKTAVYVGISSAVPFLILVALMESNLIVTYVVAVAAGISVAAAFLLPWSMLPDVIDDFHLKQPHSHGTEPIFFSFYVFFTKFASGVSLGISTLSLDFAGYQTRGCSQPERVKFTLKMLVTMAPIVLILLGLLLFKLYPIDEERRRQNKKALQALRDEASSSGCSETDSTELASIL

B1: SYNC2CO-C43S-mCherry (C-terminal mCherry fusion, detergent-solubilised lysate) (ligand)
chain: AYRHPDFPLLEKAQQLLQSTGSPYSTNSWLCTSSSTETPGTAYPASPREWTSIEAELHISYRWDPNLKGLMRPANSLLSTVKQDFPDIRQKPPIFGPIFTNINLMGIAPICVTAKRKNGTNVGTLPSTVCNVTFTVDPNQQTYQTYTHNQFRHQPRFPKPPNITFPQGTLLDKSTRFCQGRPSSCSTRNFWFRPADYNQCLQISNLSSTAEWVLLDQTRNSLFWENKTKGANQSQTPCVQVLAGMTIATSYLGISAVSEFFGTSLTPLFHFHISTCLKTQGAFYICGQSIHQCLPSNWTGTCTIGYVTPDIFIAPGNLSLPIPIYGNSPLPRVRRAIHFIPLLAGLGILAGTGTGIAGITKASLTYSQLSKEIANNIDTMAKALTTMQEQIDSLAAVVLQNRRGLDMLTAAQGGICLALDEKCCFWVNQSGKVQDNIRQLLNQASSLRERATQGWLNWEGTWKWFSWVLPFIGPLVSLLLLLLFGPCLLNLITQFVSSRLQAIKLQTNLSAGRHPRNIQESPF
notes: The methods say only 'SYNC2'; also called SYNC2-mCherry; SYNC-mCherry; not shown: C-terminal mCherry
- Kd [1]: ~100 nM

B2: SYNC2CO-C43S (thermostable consensus SYNC2 mutant with additional mutation C43S), purified in detergent (ligand)
chain: AYRHPDFPLLEKAQQLLQSTGSPYSTNSWLCTSSSTETPGTAYPASPREWTSIEAELHISYRWDPNLKGLMRPANSLLSTVKQDFPDIRQKPPIFGPIFTNINLMGIAPICVTAKRKNGTNVGTLPSTVCNVTFTVDPNQQTYQTYTHNQFRHQPRFPKPPNITFPQGTLLDKSTRFCQGRPSSCSTRNFWFRPADYNQCLQISNLSSTAEWVLLDQTRNSLFWENKTKGANQSQTPCVQVLAGMTIATSYLGISAVSEFFGTSLTPLFHFHISTCLKTQGAFYICGQSIHQCLPSNWTGTCTIGYVTPDIFIAPGNLSLPIPIYGNSPLPRVRRAIHFIPLLAGLGILAGTGTGIAGITKASLTYSQLSKEIANNIDTMAKALTTMQEQIDSLAAVVLQNRRGLDMLTAAQGGICLALDEKCCFWVNQSGKVQDNIRQLLNQASSLRERATQGWLNWEGTWKWFSWVLPFIGPLVSLLLLLLFGPCLLNLITQFVSSRLQAIKLQTNLSAGRHPRNIQESPF
modifications: N-glycans at N133, N146, N177, N220, N241, N247 and N312 (all seven predicted sites carry glycans in the structure)
notes: Trimeric full-length envelope protein; also called SYNC2 consensus C43S; SYNC2SU-CO (its surface subunit as resolved in the cryo-EM map)
- binding result [2]: binds

B3: SYNC2SU-CO (soluble thermostable consensus SYNC2 fragment with C43S), purified, C-terminal EPEA-tag (ligand)
chain: AYRHPDFPLLEKAQQLLQSTGSPYSTNSWLCTSSSTETPGTAYPASPREWTSIEAELHISYRWDPNLKGLMRPANSLLSTVKQDFPDIRQKPPIFGPIFTNINLMGIAPICVTAKRKNGTNVGTLPSTVCNVTFTVDPNQQTYQTYTHNQFRHQPRFPKPPNITFPQGTLLDKSTRFCQGRPSSCSTRNFWFRPADYNQCLQISNLSSTAEWVLLDQTRNSLFWENKTKGANQSQTPCVQVLAGMTIATSYLGISAVSEFFGTSLTPLFHFHISTCLKTQGAFYICGQSIHQCLPSNWTGTCTIGYVTPDIFIAPEPEA
- half-maximal inhibitory concentration (IC50) of Na+-dependent LPCNBD transport in cells [3]: ~200 nM
